Laboratory results: patent publication US20110288036A1, “Methods for Treating or Preventing Vascular Graft Failure” (priority 2010, published 2011)
Where no end group is shown, it is not given here.

Target: MK2 (mitogen-activated protein kinase-activated protein kinase 2), P49137
Assay: cell-based or functional assay

Chain of MK2 (mitogen-activated protein kinase-activated protein kinase 2), P49137 (P49137 46-400): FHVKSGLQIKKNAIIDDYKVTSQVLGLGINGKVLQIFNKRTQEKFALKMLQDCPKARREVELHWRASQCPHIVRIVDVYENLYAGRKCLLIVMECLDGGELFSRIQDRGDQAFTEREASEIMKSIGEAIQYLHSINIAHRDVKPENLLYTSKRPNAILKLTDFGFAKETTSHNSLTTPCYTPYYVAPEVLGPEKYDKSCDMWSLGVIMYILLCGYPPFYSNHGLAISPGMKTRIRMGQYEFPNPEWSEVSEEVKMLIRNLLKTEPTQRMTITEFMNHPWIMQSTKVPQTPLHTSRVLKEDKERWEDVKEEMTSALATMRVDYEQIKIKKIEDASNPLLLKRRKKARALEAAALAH

YARAAARQARAKALARQLGVAA (not fully specified (C-terminus)) [MMI-0100 (…; SEQ ID NO: 1)] was tested, and the Percent Activity (radiometric kinase assay, 100 µM peptide) (percent activity) was less than 5.
